# Assay results from article PMC3882236, “A Neutralization Epitope in the Hepatitis C Virus E2 Glycoprotein Interacts with Host Entry Factor CD81” (PLoS ONE, 2014).
# B1: CD81-Luc (large extracellular domain of human CD81, residues 113-201, fused with gaussia luciferase) (domain or fragment, UniProt P60033 113-201, looked up)
# chain: FVNKDQIAKDVKQFYDQALQQAVVDDDANNAKAVVKTFHETLDCCGSSTLTALTTSVLKNNLCPSGSNIISNLFKEDCHQKIDDLFSGK
# notes: human CD81, large extracellular domain, residues 113-201; source: Huh7, transiently transfected, secreted into the cell culture medium (supernatant)
# Tests used:
# Assay in all cases: luciferase-based plate binding assay; supernatant (100 uL/well) with E2-16Fc or a mutant form held on protein A-coated 96-well plates, room temperature, 1 h; PBS-T wash; CD81-Luc supernatant (2.5x10^6 units of luciferase activity in 30 uL) added for 1 h, with or without 1H8 (10 or 50 ug/reaction); PBS-T rinse; bound luciferase activity read
# Conditions in all cases: partners not purified
# [1] = biological target: T1, E2-16Fc T526A (Hepatitis C virus genotype 1a, H77 …, UniProt P27958 384-661, T526A)
# T1 construct: HCV envelope glycoprotein E2, residues 384-661, HCV genotype 1a H77 strain, single site mutant of E2-16Fc; Same construct as m1 with one substitution; source: Huh7, transiently transfected, secreted into the cell culture medium (supernatant)
# [2] = biological target: T2, E2-16Fc W529A (Hepatitis C virus genotype 1a, H77 …, UniProt P27958 384-661, W529A)
# T2 construct: HCV envelope glycoprotein E2, residues 384-661, HCV genotype 1a H77 strain, single site mutant of E2-16Fc; Same construct as m1 with one substitution; source: Huh7, transiently transfected, secreted into the cell culture medium (supernatant)
# [3] = biological target: T3, E2-16Fc Y527A (Hepatitis C virus genotype 1a, H77 …, UniProt P27958 384-661, Y527A)
# T3 construct: HCV envelope glycoprotein E2, residues 384-661, HCV genotype 1a H77 strain, single site mutant of E2-16Fc; Same construct as m1 with one substitution; source: Huh7, transiently transfected, secreted into the cell culture medium (supernatant)
binder,measurement,setting,value
B1,percent reduction of binding compared to the wild-type E2-16Fc,[1],83.1%
same,percent reduction of binding compared to the wild-type E2-16Fc,[2],99.2%
same,percent reduction of binding compared to the wild-type E2-16Fc,[3],98.4%
